Assay results from the supplement of paper PMC9732359.
± gives the uncertainty stated by the source.

Test: protein stability index of a GFP-peptide fusion (yeast GPS) (PSI 1-4); higher = more stable; sorted into four equal gates, so the index is relative within each strain
Outline: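 The protein stability index combines read frequencies across sorting gates, each weighted by its gate number and then summed. To obtain those frequencies, a pooled yeast library of GFP fusions to tiled 17-residue yeast protein peptides, on a plasmid also expressing Cherry, was grown to mid-log phase in leucine-free medium. The cells were sorted into four equal gates by GFP/Cherry ratio before plasmid amplification by PCR and Illumina sequencing.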

Sequence | protein stability index (doa10∆) | protein stability index (pdr5∆) | protein stability index (san1∆) | protein stability index (ubr1∆)
INVETVYDIMALEDEER [BRR2] | 2.99 ± 0.092 | 2.8 ± 0.081 | 2.73 ± 0.066 | 2.79 ± 0.067
HWPLNWYLILSIISSKT [RGR1] | 1.57 ± 0.1 | 1.5 ± 0.08 | 1.4 ± 0.21 | 1.18 ± 0.067
IGSNGSGKSNFFAAIRF [SMC3] | 3.03 ± 0.068 | 3.07 ± 0.066 | 3.02 ± 0.05 | 3.05 ± 0.039
RRRAFKRSQKKHKKKHL [RPB4] | 3.16 ± 0.091 | 3.1 ± 0.078 | 3.13 ± 0.057 | 3.46 ± 0.077
VSTAKFSGKYLKYLTKK [RPL22A] | 3.17 ± 0.12 | 3.29 ± 0.11 | 3.41 ± 0.2 | 3.26 ± 0.12
APPLENENSNCLLSIPK [YML103C/NUP188] | 1.86 ± 0.058 | 1.92 ± 0.057 | 1.65 ± 0.16 | 1.71 ± 0.059
WGYQMVWAPTQKCFKLT [POP1] | 2.59 ± 0.069 | 2.62 ± 0.068 | 2.57 ± 0.069 | 2.66 ± 0.067
QNTVPNVLNQINQIFSP [GAL11] | 2.63 ± 0.039 | 2.5 ± 0.033 | 2.4 ± 0.038 | 2.44 ± 0.032
LPFMQNAGPNSNIPNLL [YDL088C/ASM4] | 2.46 ± 0.037 | 2.18 ± 0.04 | 2.58 ± 0.039 | 2.52 ± 0.029
LKCAERQLTSMEFSNLY [NUT1] | 2.06 ± 0.054 | 1.87 ± 0.034 | 1.65 ± 0.072 | 2.17 ± 0.032
EQTRTILSVKLAELINM [SRB6] | – | – | 2.91 ± 0.24 | –
EIDDFNDIDDLDMELAE [SEC65] | 2.68 ± 0.1 | 3.11 ± 0.11 | 2.89 ± 0.089 | 3.22 ± 0.12
KWDDLNEQLTLLSKKHG [RPN5] | 2.67 ± 0.099 | 2.92 ± 0.083 | 2.58 ± 0.063 | 2.94 ± 0.055
ADGPTMREITETIAEAK [RPO21] | 3.46 ± 0.074 | 3.45 ± 0.055 | 3.39 ± 0.026 | 3.39 ± 0.041
LSNEFTATNSKGEQIAI [ECM29] | 3.06 ± 0.11 | 3.25 ± 0.12 | 2.91 ± 0.18 | 3.26 ± 0.11
IINKVLDYQETYVEELF [YJL039C/NUP192] | 2.2 ± 0.1 | 2.87 ± 0.15 | 2.76 ± 0.12 | 2.6 ± 0.075
TATYNDNMSEEQWLRQF [SNF2] | 3.28 ± 0.092 | 3.33 ± 0.12 | 3.27 ± 0.1 | 3.5 ± 0.089
GDEGYNEDMVRRANFYK [SNF12] | 3.38 ± 0.14 | 3.36 ± 0.17 | 3.44 ± 0.076 | 3.45 ± 0.14
VEYLDVNEENDSYIALY [RET1] | 2.97 ± 0.14 | 3.08 ± 0.19 | 3.2 ± 0.08 | 3.2 ± 0.12
FDVNNIDMHLIYGVEWL [YDL116W/NUP84] | 2.12 ± 0.059 | 2.09 ± 0.049 | 1.92 ± 0.074 | 2.27 ± 0.044
NLKQANNVAYGKKRFRV [SMC4] | 2.41 ± 0.11 | 2.62 ± 0.077 | 2.09 ± 0.095 | 2.31 ± 0.054
FQITLSSDDLQNCWSLI [SSN8] | 2.11 ± 0.049 | 2.33 ± 0.063 | 2.22 ± 0.062 | 1.91 ± 0.045
LEVGRRFSPDEDFEHNN [MCD1] | 3.26 ± 0.15 | 3.45 ± 0.18 | 3.22 ± 0.16 | 3.45 ± 0.18
FKLDKDTSNWELSDSWR [YGL100W/SEH1] | 3.37 ± 0.068 | 3.45 ± 0.055 | 3.39 ± 0.037 | 3.31 ± 0.042
AKWAPTLRTISFKGSPN [SNF2] | 3.02 ± 0.16 | 3.11 ± 0.27 | 2.77 ± 0.15 | 2.51 ± 0.14
RQLTSMEFSNLYKEFFN [NUT1] | 2.48 ± 0.079 | 2.59 ± 0.068 | 2.85 ± 0.089 | 2.25 ± 0.067

Sequence | protein stability index (doa10∆) | protein stability index (pdr5∆) | protein stability index (san1∆) | protein stability index (ubr1∆)
TEEVEALLQRLKTNGKQ [MTW1] | – | – | – | 3.23 ± 0.21
VFQLPTRLPAFERPAVK [RPC53] | 3.01 ± 0.093 | 2.89 ± 0.072 | 2.81 ± 0.1 | 3.01 ± 0.079
KRRVTNLEFNYTKPYPN [SMC2] | 3.12 ± 0.071 | 2.88 ± 0.14 | 2.75 ± 0.16 | 2.81 ± 0.12
DSFTMPNISHSNIDYQT [SNF2] | 2.4 ± 0.088 | 2.12 ± 0.1 | 2.49 ± 0.13 | 2.41 ± 0.072
VKVKVSYQKLLKNYVLN [PRP8] | 1.33 ± 0.043 | 1.36 ± 0.035 | 1.46 ± 0.062 | 1.63 ± 0.036
YIIQGSNTNDNISIITL [RGR1] | 2.77 ± 0.075 | 2.29 ± 0.083 | 2.19 ± 0.15 | 2.22 ± 0.063
NDRKQTTVSNDLENSPL [SSN2] | 2.98 ± 0.079 | 3.11 ± 0.056 | 3.13 ± 0.041 | 3.08 ± 0.038
NVEPTENAYKSENAPSA [YAR002W/NUP60] | 2.81 ± 0.094 | 3.02 ± 0.12 | 2.29 ± 0.16 | 3.03 ± 0.12
PYAQKPLQGIFHNAVFN [QCR8] | 2.75 ± 0.057 | 2.52 ± 0.046 | 2.35 ± 0.045 | 2.57 ± 0.038
NTSESLLVDIQKYNQIQ [SMC2] | 1.71 ± 0.07 | 1.84 ± 0.066 | 1.66 ± 0.15 | 1.68 ± 0.048
NNNDNDANRNANNIVNI [GRR1] | 2.94 ± 0.052 | 3 ± 0.05 | 2.9 ± 0.036 | 3.04 ± 0.045
SPSTSANVPSTATTGKR [RPN4] | 2.16 ± 0.18 | 2.2 ± 0.1 | 2.62 ± 0.11 | 2.65 ± 0.096
DTSAEKDQIQAGKWFDP [SIR4] | 3.51 ± 0.12 | 3.57 ± 0.14 | 3.38 ± 0.12 | 3.38 ± 0.18
VTMGAKDKLREFIPHST [RPN6] | 3.46 ± 0.11 | 3.1 ± 0.14 | 2.96 ± 0.099 | 3.04 ± 0.11
TEKNREIYKQLNDRQEE [YIL149C/MLP2] | 3.42 ± 0.073 | 3.41 ± 0.063 | 3.57 ± 0.042 | 3.12 ± 0.057
ELLSMNIAPRLRLEDIF [RET1] | 2.57 ± 0.065 | 2.25 ± 0.046 | 2.35 ± 0.057 | 2.5 ± 0.047
IRQDVNLGRAVFWEIQS [PRP8] | 3.04 ± 0.069 | 2.86 ± 0.053 | 2.64 ± 0.06 | 2.86 ± 0.04
AMICEAKGLIENIFEGE [YJR042W/NUP85] | 2.94 ± 0.13 | 2.93 ± 0.086 | 2.5 ± 0.1 | 2.81 ± 0.064
RHLEKEGIIKPISKHSK [RPS25A] | 3.04 ± 0.084 | 3.28 ± 0.093 | 2.96 ± 0.084 | 3.01 ± 0.076
PEYEKAMQYVCGDSIIC [SMC1] | 1.7 ± 0.1 | 2.27 ± 0.17 | 1.88 ± 0.14 | 1.89 ± 0.1
NCPHSDSTQLLETILEE [SSN2] | 2.81 ± 0.1 | 3.1 ± 0.088 | 3.11 ± 0.13 | 2.94 ± 0.063
SSASPSALTSPTDSSKI [SIR3] | 2.71 ± 0.048 | 3.08 ± 0.055 | 2.87 ± 0.045 | 2.72 ± 0.033
TFTIQLLKLTKVFIRES [YML103C/NUP188] | 2.17 ± 0.063 | 3.12 ± 0.08 | 2.46 ± 0.086 | 2.69 ± 0.12
TKEYLVQNLRSWETKLK [CSN9] | 2.96 ± 0.099 | 3.33 ± 0.21 | 3.1 ± 0.092 | 2.93 ± 0.13
FPKTTVAALRFTAGARA [RPL18A] | 1.58 ± 0.15 | 1.47 ± 0.085 | – | 1.5 ± 0.12
VLEKKTRQASDLASSKE [RPN5] | 3.38 ± 0.23 | 3.41 ± 0.15 | – | 2.97 ± 0.24
